Measurements as given in article doi:10.1101/317677.

Target: T1, Lon (wildtype) (UniProt P0CAW0 1-799)
T1 sequence: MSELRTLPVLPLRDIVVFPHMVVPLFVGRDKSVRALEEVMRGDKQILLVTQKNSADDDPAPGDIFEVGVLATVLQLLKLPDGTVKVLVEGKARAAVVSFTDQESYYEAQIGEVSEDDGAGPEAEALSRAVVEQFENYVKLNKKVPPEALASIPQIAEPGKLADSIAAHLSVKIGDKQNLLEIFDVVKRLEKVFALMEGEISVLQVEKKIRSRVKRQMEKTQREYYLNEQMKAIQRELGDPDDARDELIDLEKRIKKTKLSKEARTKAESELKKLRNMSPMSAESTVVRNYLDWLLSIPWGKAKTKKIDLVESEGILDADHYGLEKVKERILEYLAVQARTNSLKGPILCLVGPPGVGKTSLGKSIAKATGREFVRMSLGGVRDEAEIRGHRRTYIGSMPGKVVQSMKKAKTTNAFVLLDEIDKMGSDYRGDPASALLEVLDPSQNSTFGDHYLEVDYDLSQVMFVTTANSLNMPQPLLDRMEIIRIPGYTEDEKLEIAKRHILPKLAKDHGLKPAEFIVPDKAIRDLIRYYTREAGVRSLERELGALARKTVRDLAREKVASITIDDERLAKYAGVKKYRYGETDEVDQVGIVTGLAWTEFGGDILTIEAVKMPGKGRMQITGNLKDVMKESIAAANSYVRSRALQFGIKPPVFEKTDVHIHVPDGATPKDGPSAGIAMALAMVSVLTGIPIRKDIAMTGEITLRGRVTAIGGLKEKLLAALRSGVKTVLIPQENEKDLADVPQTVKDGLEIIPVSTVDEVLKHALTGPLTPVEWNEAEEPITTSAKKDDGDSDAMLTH
Test: fluorescence polarization

AACGGATGATCCACAGGAGAGTCTGGCGCAGGGCGAGAG (ssDNA) [FAM-DNA oligo]
Kd: 286 nM
